This passage reports stoichiometry N results from paper PMC7895813.

In general, stoichiometry N refers to the number of molecules, sites or subunits per partner or assembly.

The target of test [1] is Xenopus tropicalis MDM2 414-C (MDM2^f), GST-tag removed (Xenopus tropicalis (western clawed frog)). Kind of test: crystal structure; free MDM2 RING domains (MDM2^z, MDM2^f); crystals grown at 19 °C by vapour diffusion.
Test [2] has the same target. Kind of test: crystal structure; MDM2^f or MDM2^hGT mixed with UbcH5B–Ub at 1:1 ratio; crystals grown at 19 °C by vapour diffusion.
For test [3] the target is unchanged. Nature of the test: SEC; cleaved MDM2 variants after removal of the GST-tag on HiLoad 16/600 Superdex 75; oligomeric state by comparison with molecular weight markers. In general terms: Size exclusion chromatography separates by hydrodynamic size, large species first.
Test [4] concerns the target opossum MDM2 421-C, GST-tag removed (Monodelphis domestica (opossum)). Nature of the test: SEC; GST-MDM2 variants (3 mg/mL) incubated with 1:10 TEV for 16-20 h at 4 °C; soluble fraction of the cleaved products on Superdex 75 Increase 10/300; comparison with molecular weight markers and SDS-PAGE.

Regarding “Xenopus tropicalis MDM2 414-C (MDM2^f), GST-tag removed (domain or fragment)”, the stoichiometry N in test [1], in test [2] and in test [3] was 2 each time.
For “opossum MDM2 421-C, GST-tag removed (domain or fragment)”, the stoichiometry N in test [4] came to 2.
